From PMC2864300, “Regulation of NOXO1 Activity through Reversible Interactions with p22^phox and NOXA1” (PLoS ONE, 2010)

Key:
[1] = biological target: human NOXO1 tandem SH3 domains (SH3AB) (human); assay: ITC; MicroCal VP-ITC, 18°C; 150 mM NaCl, 1 mM DTT, 50 mM HEPES pH 7.4; typically 20–40 µM protein in the cell, 200–300 µM ligand injected; single-site binding model; averaged over three to five experiments
[2] = biological target: human NOXO1 tandem SH3 domains (SH3AB) (human); assay: ITC; data not shown; peptides of the human NOXO1 C-terminal tail titrated against human NOXO1 SH3 domains

| Kd [1] | Kd [2] | Binder |
| --- | --- | --- |
| 50 µM | – | TAPPPTVPTRPS [shorter version of peptideA, which only contains the proline rich region] |
| – | 50 µM | TAPPPTVPTRPSPGAIQSRCCTVTRRALE [peptideA (amino acids 319–347 of human NOXO1)] |
